The values below come from publication PMC11559096.

Test [1] has as its target MHV-2 S2 fragments made by trypsin after receptor binding (69 and 67 kDa) (mouse hepatitis virus type 2 (MHV-2)). Description: SDS-PAGE of samples heated in 1% SDS (dissociation temperature of the trimer); MHV-2 with receptor, then trypsin at 37°C, in the presence of the HR2-peptide; 5 mM Pefabloc SC and 1% SDS on ice, then 10 min at the indicated temperatures; western blot with MAb10G; trimer to monomers.

Test [2] has the same target. Description: SDS-PAGE of samples heated in 1% SDS (dissociation temperature of the trimer); post-fusion state (MHV-2 with receptor, then trypsin at 37°C), no HR2-peptide; 5 mM Pefabloc SC and 1% SDS on ice, then 10 min at the indicated temperatures; western blot with MAb10G; trimer to monomers. A general note: Immunoblotting shows a protein as a band on a membrane.
The target in test [3] is MHV-2 spike (S) protein, uncleaved 180 kDa, on authentic virus (mouse hepatitis virus type 2 (MHV-2)). As to the kind of experiment: SDS-PAGE of samples heated in 1% SDS (dissociation temperature of the trimer); pre-fusion state (untreated MHV-2), with or without HR2-peptide; 5 mM Pefabloc SC and 1% SDS on ice, then 10 min at the indicated temperatures; western blot with MAb10G; trimer to monomers.

The target is the same in test [4]. As to the kind of experiment: SDS-PAGE of samples heated in 1% SDS (dissociation temperature of the trimer); receptor-binding state (MHV-2 with soluble receptor), with or without HR2-peptide; 5 mM Pefabloc SC and 1% SDS on ice, then 10 min at the indicated temperatures; western blot with MAb10G; trimer to monomers.

A word on the stoichiometry N: it is the number of molecules, sites or subunits per partner or assembly.

Where only a bound is given, the exact number is not on record here.

In the case of “MHV-2 S2 fragments made by trypsin after receptor binding (69 and 67 kDa) (domain or fragment)”, the dissociation temperature of the trimer in 1% SDS in test [1] turned out to be 80 °C. In addition, in test [2], the dissociation temperature of the trimer in 1% SDS stood at 100 °C and the stoichiometry N came out at 3.

As for “MHV-2 spike (S) protein, uncleaved 180 kDa, on authentic virus (natural protein)”, in test [3], the dissociation temperature of the trimer in 1% SDS was less than 25 °C and the stoichiometry N was determined as 3. Further, the dissociation temperature of the trimer in 1% SDS in test [4] is 65 °C.
